We go through 21 sequences from the DeepSol protein solubility set.

This data set can be described thus: soluble on expression in E. coli; label from the status in PepcDB or PDB records.
Take “MESKLNLDFNLVEKARAKAKAIAIDTQEFIEKHTTVTVERAVCRLLGIDGVDTDEVPLPNIVVDHIKENNGLNLGAAMYIANAVLNTGKTPQEIAQAISAGELDLTKLPMKDLFEVKTKALSMAKETVEKIKNNRSIRESRFEEYGDKSGPLLYVIVATGNIYEDITQAVAAAKQGADVIAVIRTTGQSLLDYVPYGATTEGFGGTYATQENFRLMREALDKVGAEVGKYIRLCNYCSGLCMPEIAAMGAIERLDVMLNDALYGILFRDINMQRTMIDQNFSRIINGFAGVIINTGEDNYLTTADAFEEAHTVLASQFINEQFALLAGLPEEQMGLGHAFEMDPELKNGFLYELSQAQMAREIFPKAPLKYMPPTKFMTGNIFKGHIQDALFNMVTIMTNQRIHLLGMLTEALHTPFMSDRALSIENAQYIFNNMESISEEIQFKEDGLIQKRAGFVLEKANELLEEIEQLGLFDTLEKGIFGGVKRPKDGGKGLNGVVSKDENYYNPFVELMLNK”: the “soluble on expression in E. coli” value was “soluble”.
With “MMEDDGQPRTLYVGNLSRDVTEVLILQLFSQIGPCKSCKMITEHTSNDPYCFVEFYEHRDAAAALAAMNGRKILGKEVKVNWATTPSSQK” the entry was “soluble”; with “MSLQLRHNRTLLENLADRQTMALQQFVDGDIHFIGSAANFFRSSTSDDWVRFHTFAEETLKGSQSLIALQWLVKVEPPQAETFTARMQQRFPEFTLYTVPKTGEIKYGFGTDDQAKYVLSDIYPLNYDNRKLLGFYSERERFKRILADIVVNRRPNVSDKVRLLQDGIDKSIVKDGMLVYHPVFSSEDDRSLLGVMVGVVRLSTYFEKLVQISVMEQDLDMRVIDTGFDSEDSPVLYQSPMWRADDEPKIERKLVLPNRDWVLEFELHQPINHSEELEHHHHHH”, “soluble”.
On to “MEIQFLGTGAGQPAKARNVSSLVLKLLDEINEVWMFDCGEGTQRQILETTIKPRKVKKIFITHMHGDHVFGLPGFLSSRAFQANEEQTDLDIYGPVGIKSFVMTALRTSGSRLPYRIHFHEFDESSLGKIMETDKFTVYAEKLDHTIFCMGYRVVQKDLEGTLDAEALKLAGVPFGPLFGKVKNGENVTLEDGREIIAKDYISEPKKGKVITILGDTRKTDASIRLALGADVLVHESTYGKGDERIAKSHGHSTNMQAADIAKQANAKRLLLNHVSARFMGRDCWQMEEDAKTIFSNTHLVRDLEEVGILEHHHHHH”, for which the “soluble on expression in E. coli” value is reported as “soluble”.
With “MPEPTKKEEPSKEKEAGTTPAKDWTLVETPPGEEQAKQNANSQLSILFIEKPQGGTVKVGEDITFIAKVKAEDLLRKPTIKWFKGKWMDLASKAGKHLQLKETFERHSRVYTFEMQIIKAKDNFAGNYRCEVTYKDKFDSCSFDLEVHESTGTTPNIDIRSAFKRSGEGQEDAGELDFSGLLKRREVKQQEEEPQVDVWELLKNAKPSEYEKIAFQYGITDLRGMLKRLKRMRREEKKSAAFAKILDPAYQVDKGGRVRFVVELADPKLEVKWYKNGQEIRPSTKYIFEHKGCQRILFINNCQMTDDSEYYVTAGDEKCSTELFVREPPIMVTKQLEDTTAYCGERVELECEVSEDDANVKWFKNGEEIIPGPKSRYRIRVEGKKHILIIEGATKADAAEYSVMTTGGQSSAKLSVDLKPLKILTPLTDQTVNLGKEICLKCEISENIPGKWTKNGLPVQESDRLKVVQKGRIHKLVIANALTEDEGDYVFAPDAYNVTLPAKVHVIDPPKIILDGLDADNTVTVIAGNKLRLEIPISGEPPPKAMWSRGDKAIMEGSGRIRTESYPDSSTLVIDIAERDDSGVYHINLKNEAGEAHASIKVKVVDFPDPPVAPTVTEVGDDWCIMNWEPPAYDGGSPILGYFIERKKKQSSRWMRLNFDLCKETTFEPKKMIEGVAYEVRIFAVNAIGISKPSMPSRPFVPLAVTSPPTLLTVDSVTDTTVTMRWRPPDHIGAAGLDGYVLEYCFEGTEDWIVANKDLIDKTKFTITGLPTDAKIFVRVKAVNAAGASEPKYYSQPILVKEIIEPPKIRIPRHLKQTYIRRVGEAVNLVIPFQGKPRPELTWKKDGAEIDKNQINIRNSETDTIIFIRKAERSHSGKYDLQVKVDKFVETASIDIQIIDRPGPPQIVKIEDVWGENVALTWTPPKDDGNAAITGYTIQKADKKSMEWFTVIEHYHRTSATITELVIGNEYYFRVFSENMCGLSEDATMTKESAVIARDGKIYKNPVYEDFDFSEAPMFTQPLVNTYAIAGYNATLNCSVRGNPKPKITWMKNKVAIVDDPRYRMFSNQGVCTLEIRKPSPYDGGTYCCKAVNDLGTVEIECKLEVKV”, the “soluble on expression in E. coli” value is listed as “soluble”.
With “MGSDKIHHHHHHMTDVAKFGISRLDELLGGGLDRYTENLIIGRSGIGKTILAAHWAAEGARNDETVVYLSTTMNKKNCKAYLGRFPFMEDVYDKIKWRFIRVDPKFVLPLTREKIVEGLRATFGMDGKDIDRVVFDSCTDLELALADPVLYRRALTYMSDLSYDYEITSLWIEEAPMQGDWSSTKNIVDSVIFLNLLRTQEGYQRAMRILKKYRTRVPLEWIPYEITDEGVVIKDGYIVKRSYDYEYKRG” the entry was “not soluble”; with “MPMNTTGMSFSSFGISCHRENSFRNSFRGKNDEVVKCSIGERTISFSVRKFSGNILETVRRQSTKDIDEWIKDERIVYPSRVINQEIDNYCFQKNAKISTEERQRVFFLVSQENQLTLDVKAAQSSINHVIMGSASFGKKMDALCDGMSRDVKNRTSDTIANLLADKFYQKHIDSDIDIVKLRNDIPDYLMRAIQG”, “not soluble”; with “MPTSIQFQRSSTAAEAANATVRNYPHHHQKQVQKVSLTRGMADVPEHVELSHTHVVGPSQCFSVVVQDVEAPVSTVWSILSRFEHPQAYKHFVKSCHVVIGDGREVGSVREVRVVSGLPAAFSLERLEIMDDDRHVISFSVVGGDHRLMNYKSVTTVHESEEDSDGKKRTRVVESYVVDVPAGNDKEETCSFADTIVRCNLQSLAKLAENTSKFS”, “not soluble”.
Consider “MSLDAAQAMSKIPVIGKIVKAITFIEIKEEKDQSSIDVKTPALSGLSNKELENSINEKYLKESQQLYKEFIQSTSKNKKGHLSIYSDYETVTDTPDLLSIRRNIETTQASSYTQSRYITIDKKNDILLTLKSLFKDERYIKVISQNIKEQMKQQMKEDPNKIYWLTDEDAEPFKTILPDQTFYITEDHKLVISFDEYEVAPGYMGVTEFTIPTGVISNLLVGERYIREGHHHHHH”, for which the “soluble on expression in E. coli” value is reported as “soluble”.
“AHHHHHHGSEFNIIIAGVGGQGGLTLSRIIGSAAMVEGYRVRIGETLGMSQRYGSVLSYLRFGDSVYSPLIEEGKANLMLALEPVEALRNAAFLGKGSYAIVNAYPIHTATTLVGKEKYPSLEEIKEALEKICRVEMMNFQKEADLINPRTTGVLMLGYAQGKGLLPLKKESIIEGIRLTLREKLWEINFKAFERGRELAKHVCCDV”: the “soluble on expression in E. coli” value is “soluble”.
With “MAHHHHHHMQKLRADWTKHFDSEKASMTAFRDYDFERRVNDMRRLQNAVDHFDHAVRQGMMAMKEIASAYEAVGQAFTELTLTNNNPVPGPGEAEEPNPYPTEADVQYMSQPNAGAAAADYAASVASTRMPDEANSQVRRLAKTFAEEARRINEGPPFQSYNAGIHRDVHNRLLPVLEHLKSINEYRHKHIEALERYNKYKAEVEKVEKHYTKKGKPFCDSKGHKKYTEKRDEAWKEYITRRDKFNKTFGMLMEVNDHAAAQIIHRYLVLNHEYLQQLVASMDRVLPAMAEVYPLNNEYNSLQNTLILEAVANAKTPFADHSKIRSKQADSDKSDGAGDERHEDVQEAMDAHYEAQQSTLTSMSSDGGSNLASGSRLEDSVSYDAHVNPSTALESMEQPPDPEQDDV” the entry was “soluble”; with “IIAWLGPQLRELTPVDTNKDPKTRLQEFLQSRGCDLPRYEVVDIQGEPHCRTFFVDCEVALLSDKTHGHGGSRRIAEQVAAAAALVALGVENGHD”, “not soluble”.
Take “MGSDKIHHHHHHDDNSYSLGDIWIAVATVVPEGNNVYYLRLDDGDKLWPAATNYPNYQPKPNQRALVNFTILADSTQSNLGGFSHYIKVNAIHNILTKSIAKNEGAANDSIYGTDPVSIYNNNMWIGDGYLNIYFETLWGGKTAHFINLIQPDAENDPYTLEFRHNAYDDPQYTIGAGRVAFNLSSLPDTKGETVDLVVNYWTSEGKQAYKLKYNSDKTKMEDTSQGYTNDSISNITDMK”: the “soluble on expression in E. coli” value was “not soluble”.
Turning to “MADVLERVTKIIVDRLGVEETEVVPAASFKEDLGADSLDVVELVMQLEDEFEMEISDEDAEKIATVGDAVTYIESHL”, the “soluble on expression in E. coli” value is “not soluble”.
With “MSLSRKNQELAKIFERMADILEFLGENPYRIRTYRRVANLISELQEDVEKAFYTRKLHHMPGIGESTLLKIEEFLKTGTIKKYEELRRMVPEDLLELLDAPGVGPKTLKIAYEQLGIRTKEEFIEALKKGKFNKIRGFGPVKALKILRGIELWEKSKERISLIEAYPMAQEVLKYMERIKDKYENISIAGSLRRMKETIGDIDILVSAKKENWKAIHEHFTKYPGLLEVLAKGETKSSIILDTGRQVDLRTVEPISWGAALQYFTGSKQHNIRIRDIAKEKGLKVNEYGVFKVDTEERIAGETEEGVYEVLGMQWIPPELREDWGEIELALEHKLPRLVELKDIKGDLHMHTNWSDGVNTLEEMVETAYKLGYQYIVIGDHSQSARVANGLDPERYKQQWKEIDRLNKEYNPKGFYILKGAEVDILPDGSLDLPDEVLEQFDFVVASVHSRFEQDNTERIIKAMENPYVNMIGHPTGKQYGYREGYPVNIEKLIQKAKETGTALELNTQRMDLSPENVRKCMEAGVYIGIVTDAHSARQLHLMFLGVGLARRGWATPDKVINTFDLEGLKEFVYKKRKNLAREGHHHHHH” the entry was “soluble”; with “MHPRETIRETFVALIKAAKTVAGDNVFNMRDFNLFIETMPAINISTQSETIEDGHDFGLRRRVLTVDVECYATCEDGARFVDQLAWEVEEIFYANPNLNNTVETCRLQNIAFAFGDNGSLALHGAILTFDVTHITNIPCPDEGKATVGVVEPLVGFKPETGMGNKDKYHKIEGDHVRATR”, “not soluble”.
With “MDELNRGHAGRTVIRNIEAACEMDPEKRVVISKTDQGSEANMPGHWTGCARPTRDPFVPFVAGRGESVAVRYNSRFGRRFDDQSVNGQPDPSLAYVFLGHELIHASRTLQGTQYRVSRGRPDVDEDSGAAEEELRTVGIGQYEDEYPSENAIRREHGLAPRTSYSGNTGTNLREPPERNSQYTEARLRSLNARRWSDM”, the “soluble on expression in E. coli” value is “not soluble”.
Turning to “MQPASAKWYDRRDYVFIEFCVEDSKDVNVNFEKSKLTFSCLGGSDNFKHLNEIDLFHCIDPNDSKHKRTDRSILCCLRKGESGQSWPRLTKERAKLNWLSVDFNNWKDWEDDSDEDMSNFDRFSEMMNNMGGDEDVDLPEVDGADDDSQDSDDEKMPDLE”, the “soluble on expression in E. coli” value is given as “not soluble”.
As to “SLNRESERDVIKVGIIGDFTGICSELERGKVAAYKLAADEINRMGGINEKKVELLFRDDRSLSELTREAVKELTEEERVDVLMGSTLSPSREIMQHYADQTKTLYLDTQQTEGGVSSHYTFCLSAMPEQQMTQMLAYLLQKYGRKCYVVAADYNYGILSAEWVKYLVHQLGGEIVGVEYLDDRITDFNPLIDRILQLEADILFSICVFPNHDAFYLQWHQRGLNHIPNASTMVAAEAYQNVRFAPPVLENMYVMASFIEELNTPAAQRFVKKFRAAYDHREVPYMSMDTETVYTAMYVYKRAVELAGTTDTEEVITALESGAVYVDGPGGRVTVRGEDHHTSRSLSCFRINNQHRAEELFCTNPIHSDYIESMIEQTMGVKGGIKAMGANAPSTQYNMLLNKFRWHPSEG”, the “soluble on expression in E. coli” value is listed as “soluble”.
With “RAKGTLRIWAEPFTKLRVPKIFNLRMDPYEVADVTSNTYYDWMLDRAYMLVPAQTYVGRFLETFKEFPPRQKAASFSLDQVMEKLQENPNK” the entry was “not soluble”.
With “MSLVWLAELPDEILENLYPGEDVLYSVKKKLYTELKPKYLIVTDRRIIYLDQKILGRYDLIDIPYEKLEFVHFKKGKIGAKFIIRNEEGEEIVLTWMEKDEAEKAIEAIRDAINAIAVEPVSIQKRKGILGFELELSKPKEFITRTYPQAVAKAAPKEDPIERIRKLKELYESGVISREEFEEKKRKLLDQIEGHHHHHH” the entry was “soluble”.
